According to paper PMC4649501 (2015):
One block for each binder: values may come before it.

Assays:
[1] = target: PDCD6 (Homo sapiens, UniProt O75340); assay: SPR
[2] = target: T1, PDCD6 N-terminal domain peptide (Homo sapiens, Ca2+ (100 uM CaCl2)); assay: SPR
T1 chain: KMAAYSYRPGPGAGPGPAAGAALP

PDCD6, sequence (O75340 2-191): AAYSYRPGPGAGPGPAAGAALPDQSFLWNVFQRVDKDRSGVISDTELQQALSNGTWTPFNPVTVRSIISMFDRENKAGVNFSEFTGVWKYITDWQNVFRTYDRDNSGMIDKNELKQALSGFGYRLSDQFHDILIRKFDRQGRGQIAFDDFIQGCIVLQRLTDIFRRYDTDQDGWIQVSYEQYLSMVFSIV

B1: SCBD (Sorcin calcium-binding domain) 33-198 (protein)
chain: DPLYGYFAAVAGQDGQIDADELQRCLTQSGIAGGYKPFNLETCRLMVSMLDRDMSGTMGFNEFKELWAVLNGWRQHFISFDTDRSGTVDPQELQKALTTMGFRLSPQAVNSIAKRYSTNGKITFDDYIACCVKLRALTDSFRRRDTAQQGVVNFPYDDFIQCVMSV
Kd [1]: 5 µM
Kd [2]: 6 µM

B4: Sorcin (protein)
chain: MAYPGHPGAGGGYYPGGYGGAPGGPAFPGQTQDPLYGYFAAVAGQDGQIDADELQRCLTQSGIAGGYKPFNLETCRLMVSMLDRDMSGTMGFNEFKELWAVLNGWRQHFISFDTDRSGTVDPQELQKALTTMGFRLSPQAVNSIAKRYSTNGKITFDDYIACCVKLRALTDSFRRRDTAQQGVVNFPYDDFIQCVMSV
modifications: Ca2+ (100 uM CaCl2)
Kd [1]: 3.5 µM

Further binders by falling Kd [1], results first:

Kd [1]: 12 µM
Kd [2]: 5 µM
B3: Sorcin (protein)
chain: B4 chain

Kd [1]: 3.5 µM
B2: SCBD (Sorcin calcium-binding domain) 33-198 (protein)
chain: B1 chain
modifications: Ca2+ (100 uM CaCl2)
